# In the supplement of paper PMC9112550, “Optimization of the antimicrobial peptide Bac7 by deep mutational scanning” (BMC Biology, 2022):
# System: Escherichia coli TOP10
# Test: shrunken log2 fold change of peptide-encoding DNA abundance (4.5 h post-induction vs induction); higher = less antimicrobial activity (less host growth inhibition)
# Details: time post-induction: 4.5 h; library: site-saturation at positions 5, 18, 19, 20
# 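Further: peptides expressed intracellularly from a pBAD plasmid library in pooled LB shake-flask culture, induced with 0.3% L-arabinose, DNA abundance read by NGS, three biological replicates, DESeq2 with apeglm shrinkage.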
row,Sequence,shrunken log2 fold change
1,RRIRVRPPRLPRPRPRPQHHPRP,-0.182
2,RRIRDRPPRLPRPRPRPAHEPRP,-0.0156
3,RRIRHRPPRLPRPRPRPYLQPRP,-0.0639
4,RRIRYRPPRLPRPRPRPHMSPRP,-0.452
5,RRIRSRPPRLPRPRPRPIIEPRP,-0.114
6,RRIRDRPPRLPRPRPRPKWTPRP,0.0796
7,RRIRTRPPRLPRPRPRPDIRPRP,0.0296
8,RRIRIRPPRLPRPRPRPRWYPRP,-0.452
9,RRIRDRPPRLPRPRPRPPPRPRP,1.1
10,RRIRRRPPRLPRPRPRPAPRPRP,0.996
11,RRIRERPPRLPRPRPRPEGQPRP,-0.015
12,RRIRRRPPRLPRPRPRPPPYPRP,0.366
13,RRIRDRPPRLPRPRPRPMKIPRP,-0.0804
14,RRIRHRPPRLPRPRPRPGSDPRP,-0.014
15,RRIRSRPPRLPRPRPRPFMWPRP,-0.165
16,RRIRYRPPRLPRPRPRPSIIPRP,-0.236
17,RRIRMRPPRLPRPRPRPNAIPRP,0.0397
18,RRIRTRPPRLPRPRPRPCGPPRP,-0.0329
19,RRIRVRPPRLPRPRPRPIKNPRP,-0.361
20,RRIRARPPRLPRPRPRPHSMPRP,0.104

row,Sequence,shrunken log2 fold change
1,RRIRPRPPRLPRPRPRPYWNPRP,-0.151
2,RRIRARPPRLPRPRPRPYPKPRP,-0.149
3,RRIRPRPPRLPRPRPRPYECPRP,0.0143
4,RRIRRRPPRLPRPRPRPGYMPRP,0.0939
5,RRIRDRPPRLPRPRPRPEDVPRP,-0.0018
6,RRIRMRPPRLPRPRPRPHDWPRP,1.45
7,RRIRWRPPRLPRPRPRPVGYPRP,0.0334
8,RRIRHRPPRLPRPRPRPFSWPRP,-0.0533
9,RRIRWRPPRLPRPRPRPWCDPRP,-0.0997
10,RRIRKRPPRLPRPRPRPTTMPRP,0.171
11,RRIRLRPPRLPRPRPRPLAMPRP,-0.218
12,RRIRQRPPRLPRPRPRPANQPRP,-0.091
13,RRIRERPPRLPRPRPRPKNGPRP,-0.0133
14,RRIRGRPPRLPRPRPRPNAEPRP,2.89
15,RRIRKRPPRLPRPRPRPVLWPRP,1.78
16,RRIRMRPPRLPRPRPRPHHAPRP,0.0324
17,RRIRQRPPRLPRPRPRPCGNPRP,0.0751
18,RRIRKRPPRLPRPRPRPAFWPRP,0.625
19,RRIRIRPPRLPRPRPRPEQLPRP,-0.148
20,RRIRLRPPRLPRPRPRPEDFPRP,0.0854

row,Sequence,shrunken log2 fold change
1,RRIRFRPPRLPRPRPRPCIRPRP,-0.0335
2,RRIRIRPPRLPRPRPRPGHHPRP,-0.309
3,RRIRIRPPRLPRPRPRPIMVPRP,-0.412
4,RRIRTRPPRLPRPRPRPNYFPRP,-0.062
5,RRIRQRPPRLPRPRPRPCVMPRP,-0.149
6,RRIRSRPPRLPRPRPRPITYPRP,-0.361
7,RRIRIRPPRLPRPRPRPHPIPRP,-0.265
8,RRIRYRPPRLPRPRPRPRIIPRP,-0.457
9,RRIRVRPPRLPRPRPRPLYGPRP,-0.426
10,RRIRGRPPRLPRPRPRPFGYPRP,-0.0838
11,RRIRPRPPRLPRPRPRPDAIPRP,0.148
12,RRIRDRPPRLPRPRPRPVEKPRP,0.0436
13,RRIRVRPPRLPRPRPRPAQIPRP,-0.246
14,RRIRGRPPRLPRPRPRPLKSPRP,0.426
15,RRIRNRPPRLPRPRPRPIDGPRP,-0.00962
16,RRIRMRPPRLPRPRPRPTWTPRP,0.667
17,RRIRCRPPRLPRPRPRPQEHPRP,-0.389
18,RRIRKRPPRLPRPRPRPMFDPRP,0.166
19,RRIRKRPPRLPRPRPRPMFFPRP,-0.14
20,RRIRLRPPRLPRPRPRPFMIPRP,-0.186
